Data taken from publication PMC12561426, “Dissecting the Interplay Between NRF2 and BACH1 at CsMBEs”.

Assays:
sMafGDBD = sMafGDBD (UniProt O15525 1-162); assay: EMSA; apparent; homodimer; 150 mM NaCl, 50 mM HEPES pH 7.9, 10% glycerol, 1 mM TCEP, 1 mM DTT, 2 mM MgCl2; 3 nM DNA; TEV and 3C 50 ug/mL each, 4 h 25 °C; competition then O/N 4 °C; gels 4 °C in 1X TBE; details: protein: recombinant; tags: N-terminal 6xHis-TEV; chain copies: 2; label: 5' fluorescein on forward strand; blunt
NRF2DBD = biological target: T1, NRF2DBD (UniProt Q16236 451-567); assay: as above; details: protein: recombinant; tags: C-terminal 3C-6xHis; chain copies: 2; label: 5' fluorescein on forward strand; blunt
T1 sequence: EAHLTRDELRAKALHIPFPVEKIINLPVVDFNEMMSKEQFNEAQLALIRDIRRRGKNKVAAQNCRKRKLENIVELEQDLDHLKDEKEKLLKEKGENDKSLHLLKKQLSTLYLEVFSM

BACH1DBD = BACH1DBD (UniProt O14867 511-627); assay: EMSA; apparent; homodimer concentration; 150 mM NaCl, 50 mM HEPES pH 7.9, 10% glycerol, 1 mM TCEP, 1 mM DTT, 2 mM MgCl2; 3 nM DNA; TEV and 3C 50 ug/mL each, 4 h 25 °C; competition then O/N 4 °C; gels 4 °C in 1X TBE; details: protein: recombinant; tags: C-terminal 3C-6xHis; chain copies: 2; label: 5' fluorescein on forward strand; blunt
Sequence of BACH1DBD (O14867 511-627): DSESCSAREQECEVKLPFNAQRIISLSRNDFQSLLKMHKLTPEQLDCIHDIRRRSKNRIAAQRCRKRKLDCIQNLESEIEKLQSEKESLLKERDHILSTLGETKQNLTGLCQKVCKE

B1: HMOX1 CsMBE 30-mer (dsDNA)
DNA 1: CTCGGGACCGTGACTCAGCAGGAAAAACAC
DNA 2: GTGTTTTTCCTGCTGAGTCACGGTCCCGAG
Work on B1 yielded a Kd (sMafGDBD) of roughly 203 nM, a Kd (NRF2DBD) of roughly 590 nM and a Kd (BACH1DBD) of roughly 802 nM.
